{
  "source": "the nanobody polyreactivity screen of Harvey et al. (2022)",
  "data": [
    {"assay": "yeast display, Sf9 membrane polyspecificity reagent, FACS + sequencing; frameworks hold sequencing errors", "procedure,_shortened": "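Synthetic nanobody libraries on Saccharomyces cerevisiae BJ5465 were galactose-induced for 36–48 hours, stained 1 hour at 4 °C with 10% biotinylated, detergent-solubilized Sf9 membrane reagent and enriched on streptavidin microbeads. FACS then separated cells into low and high (top ~1%) gates by anti-HA (expression) and streptavidin (reagent binding) fluorescence. Genes were colony-PCR amplified, MiSeq 2 × 250 sequenced and CDR-length filtered. A clone's polyreactivity label is that of its gate of origin.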", "values": [
      {"sequence": "QVQLVESGGGLVQAGGSLRLSCAASGRTLGVYTMGWYRQAPGKERELVATISWDGGITYYADSVKGRFTISRDNAKNTVYLQMNSLKPEDTAVYYCAAVDHSYGWMDYWGQGTQVTVSS", "polyreactivity (PSR sort gate)": "low polyreactivity"},
      {"sequence": "QVQLVESGGGLVQAGGSLRLSCAASGSTLVTNAMGWYRQAPGKERELVAAITFSGGTTYYADSVKGRFTISRDNAKNTVYLQMNSLKPEDTAVYYCAAEIWLEYVGYDYWGQGTQVTVSS", "polyreactivity (PSR sort gate)": "high polyreactivity"},
      {"sequence": "QVQLVESGGGLVQAGGSLRLSCAASGRTLYRYTMGWYRQAPGKERELVAAISRGGSTYYADSVKGRFTISRDNAKNTVYLQMNSLKPEDTAVYYCAAVYSYTSWQTWWPEYDYWGQGTQVTVSS", "polyreactivity (PSR sort gate)": "high polyreactivity"},
      {"sequence": "QVQLVESGGGLVQAGGSLRLSCAASGITFTSYAMGWYRQAPGKERELVASIDSDDSTNYADSVKGRFTISRDNAKNTVYLQMNSLKPEDTAVYYCAASDNDDWYYVYHYDYWGQGTQVTVSS", "polyreactivity (PSR sort gate)": "low polyreactivity"},
      {"sequence": "QVQLVESGGGLVQAGGSLRLSCAASGFIFDSNPIGWYRQAPWKEREVVAAISSSGGSTYYADSVKGRFTISRDNAKNTVYLQMKSLKPEDTAVYYCGAESQRFISSSEVYWGQGTQVTVSS", "polyreactivity (PSR sort gate)": "low polyreactivity"},
      {"sequence": "QVQLVESGGGLVQAGGSLRLSCAASGFTFDGYGMGWYRQAPGKERELVAVITSGGSTKYADSVKGRFTISRDNAKNTVYLQMNSLNPEDTAVYYCNVVGGRYLYSAYDYWGQGTQVTVSS", "polyreactivity (PSR sort gate)": "low polyreactivity"},
      {"sequence": "QFQLVESGGGLVQAGGSLRLSCAASGRIFVRYAMGWYRQAPGKERELVAGITWSGGSTYYADSVKGRFTISRDNSKNTVYLQMNSLKPEDTAVYYCAAERRFYTSYKSKMESCGQGTQVTVSS", "polyreactivity (PSR sort gate)": "high polyreactivity"},
      {"sequence": "QVQLLESGGGLVQAGGSLRLSCAASGSTYSRYDMGWYRPAPGKERELVAAISRSGGSTYYADSVKGRFTISRDNAKNTVYLQMNSLKPEDTAGYYCAAYLPYRQGRYGYEYWGQGTQVNVSS", "polyreactivity (PSR sort gate)": "high polyreactivity"},
      {"sequence": "QVQLVESGGGLVQAGGSLRLSCAASGITYVSNAMGWYRQAPGKERELFAANTRRGTSTYYADSVKGRFTLSRDNAKNTVYLQMNSLKPVDTAVYYCNKVWKYSSSGFGKEVYGYDYWGQGTQVTVSS", "polyreactivity (PSR sort gate)": "high polyreactivity"},
      {"sequence": "QVQLVESGGGLVQAGGSLRLSCAASGSIFYYNAMGWYRQAPGKERELVAVISYRSGRTSYADSVKGRFTISRDNAKNTVYLQMNSLKPEDTAVYYCIAKPAVSFSRHYYRYDYWGQGTQVTVSS", "polyreactivity (PSR sort gate)": "high polyreactivity"},
      {"sequence": "QVQLVESGGGLVQAGGSLRLSCAASGFIFGNYALGWYRQAPWKERELVAGISGTGGSTYYADSVKGRFTISRDNAKNTVYLQMNSLKPEDTAVYYCAARIFKRQSFDYWGQGTQVTVSS", "polyreactivity (PSR sort gate)": "high polyreactivity"},
      {"sequence": "QVKLVESGGGLVQAGGSLSLSCAASGRIFSYNAMGWYRQAPGKERELVAVISRSDTSTYYADSVKGRFTISRDNAKNTVYLEMNSLKPEDTAVYYCNADGPTYFRYSGYYYWGQGTQVTVSS", "polyreactivity (PSR sort gate)": "low polyreactivity"},
      {"sequence": "QVQLVESVGGLVEAGRILRLSCAATGSTFPYNDLGWYRQAPGKQRELVADISGDSGSTYYADSVKGRFTISRDNAKNTVYLQMKSLKPEDTAVYYCAAEGLHYAGDYGTGYDNWGQGTQLTVSS", "polyreactivity (PSR sort gate)": "low polyreactivity"},
      {"sequence": "QVQLVESGGGLVQAGGSLRLSCAASGNTFGYNAMGWYRQAPGKERELVAAISSSGTRTYYADSVKGRFTISRDNAKNTVYLQMNSLKPEDTAVYYCNARSTRYKFGYWGQGTQVTVSS", "polyreactivity (PSR sort gate)": "high polyreactivity"},
      {"sequence": "QVQLVESVGGLVQAGGSLRLSCAASGRIFRKYDMGWYRQAPGKERELVAAISGTGITYYADSVKGRFTISRDNAKNTVYLQMNSLKPEDTAVYYCARGSKPRAWSWAYPSATSIYDYWGQGTQVTVSS", "polyreactivity (PSR sort gate)": "low polyreactivity"},
      {"sequence": "QVQLVESGGGLVQAGGSLRLSCAASGRIFGANAMGWYRQAPGKERELVAVITGGGGTYYADSVKGRFTISRDNAKNTVYLQMNRLKPEETAVYYCDWPRYYYTYPSHPMDYWGQGTQVTVSS", "polyreactivity (PSR sort gate)": "low polyreactivity"},
      {"sequence": "QVQLVESGGGLVQAGGSLRLSCAASGRTFVRNAMGWYRQAPGKERELVAAINSGGSTNYADSLKGRFTISRDNPKNTVYLQMNSLKPEDTAVYYCNAPRQHVGNGNYWGQGTQVTVSS", "polyreactivity (PSR sort gate)": "low polyreactivity"},
      {"sequence": "QVQLVESGGGLVQAGGSLRLSCAASGIIFAAYVMGWYRQAPGKERELVAAISKSGGRTYYADSVKGRFTISRDNAKNTVYLQMNSLKREDTAVYYCAASYTYYSIGLGTDVRYGYWGEGTQVTVSS", "polyreactivity (PSR sort gate)": "high polyreactivity"},
      {"sequence": "QVQLVESGGGLVQAGGSLRLSCAASGSIFGYYAMGWYIQAPGKERELVAAISWSGGSTYYADSVKGRFTISRDNAKNTVYLQMNSLKPEDTAVYYCNAYTRRGGHDYWGQGTQVTVSS", "polyreactivity (PSR sort gate)": "high polyreactivity"},
      {"sequence": "QVQLVESGGGLVQAGGSLRLSCAASGRTFRRNAMGWYRQAPGKERELVAAITRSGGSTYYADSVKGRFTISRDNAKNTVYLQMNSLKPEDTAVYYCAAGTYVGLKTQYDYWGQGTQVTVSS", "polyreactivity (PSR sort gate)": "high polyreactivity"},
      {"sequence": "QVQLVESGGGLVQAGGSLRLSCAASGSTFVGYAMGWYRQAPGKERELVAGITASGTNTYYADSVKGRFTISRDNAKNTVYLQMNSLKPEDTAVYYCAAAFVRPPPYVGYSRFDYWGQGTQVTVSS", "polyreactivity (PSR sort gate)": "high polyreactivity"},
      {"sequence": "QVQLVESGGGLVQAGGSLLLSCAASGLTFYPNAMGWYRQAPGKERELVAAISSSGDSTYSADSVKVRFTISRDNAKNTVYLQMNSLKPEDTAVYYCAADLGYYNARWYEYWGQGTQVTVSS", "polyreactivity (PSR sort gate)": "high polyreactivity"},
      {"sequence": "QVQLVESGGGLVQAGGSLRLSCAASGSIFGKNAMGWYRPAPGKERELVAAITRRGGSTYYADSVKGRFTISRDNAKNTVYLQMISLKPEDTAVYYCNALLTGGYQDSYPDDYWGQGTQVTVSS", "polyreactivity (PSR sort gate)": "high polyreactivity"},
      {"sequence": "QVQLVESGGGLVQAGGSLRLSCAASGGIFRSYTMGWYRQAPGKERELVAAISSGASTSYADSVKGRFTISRDNAKNTVYLQMNSLKPEHTAVYYCAVGVLYAGYFYRYRYYYWGQGTQVTVSS", "polyreactivity (PSR sort gate)": "high polyreactivity"},
      {"sequence": "QVQLVESGGGILQAGGSLRLSCAASGLTFPWYAMGWYRLAPGKERELVAAITHSDGNTYADSVKGRFTISRDKAKNTVYLQMNSLKPEDTAVYYCATDTRSQAYYYWGQGTQVTVSS", "polyreactivity (PSR sort gate)": "low polyreactivity"},
      {"sequence": "QVQLVESGGGLVQAGGSLRLSCAASGSTFFLYAMGWYRQAPGKERELVAAISSGGSTNYADSVKGRFTISRDNAKNTVYLQMNSLKPEDTAVYYCAADAVRSHDYWGQGTQVTVSS", "polyreactivity (PSR sort gate)": "low polyreactivity"},
      {"sequence": "QVQLVESGGGLVQAGGSLRLSCAASGSIFPGYAMAWYRQAPGKERELVAAISRSGGITYYADSVKGRFTISRDNAKNTVYLQMNSLKPEDTSVYYCAKTLPSNGHYDYWGQGTQVTVSS", "polyreactivity (PSR sort gate)": "low polyreactivity"},
      {"sequence": "QVQLVESGGGLVQAGGSLRLSCAASGRIFVSNVRGWYRQAPGKERELVAAIDKSGGSTYYADSVKGRFTISRDNAKNSVYLQMNSLKPEDTAVYYCAATSYRQPYRYYYWGQGTQVTVSS", "polyreactivity (PSR sort gate)": "high polyreactivity"},
      {"sequence": "QDQLVESGGGLVQAGGSLRLSCAASGSIFHGYGRGWYRQAPGKERELVASITWIGGDTYYADSVKGRFTISRDNPKNTVYLQMNSLKPEDTAVYYCNAEWVVTYIYDYWGQGTQVTVSS", "polyreactivity (PSR sort gate)": "low polyreactivity"},
      {"sequence": "QVHLVESGVGLVQAGVSHRLSCAASGSTYRGYAMGWYRQAPGKERELVAPITYISDSTYYADSVKGRFTISRDNAKNTVYLQMNSLKPEDSAVYYCNDYYDGDWRYTSQETGDNWGQGTQVTVSS", "polyreactivity (PSR sort gate)": "low polyreactivity"},
      {"sequence": "QLQLVESGGGLVQAGGRLRLTCAASGSIFFGNVMGLYIQAPGKERELVAVISWSGGTTYYADSVKGRFTISRDNAKNTVYLQMNSLKTEDTAVYYCNARYLRRGDYWGQGTQVTVSS", "polyreactivity (PSR sort gate)": "low polyreactivity"}
    ]}
  ]
}
